Source: patent WO2016171242A1 (dated 2016)

T1: human EPHB4 without signal sequence, FLAG-tagged, expressed from pFLAG-EPHB4 (human, UniProt P54760 16-987)
T1 construct: not shown: FLAG tag supplied by the vector pFLAG-GW
T1 sequence: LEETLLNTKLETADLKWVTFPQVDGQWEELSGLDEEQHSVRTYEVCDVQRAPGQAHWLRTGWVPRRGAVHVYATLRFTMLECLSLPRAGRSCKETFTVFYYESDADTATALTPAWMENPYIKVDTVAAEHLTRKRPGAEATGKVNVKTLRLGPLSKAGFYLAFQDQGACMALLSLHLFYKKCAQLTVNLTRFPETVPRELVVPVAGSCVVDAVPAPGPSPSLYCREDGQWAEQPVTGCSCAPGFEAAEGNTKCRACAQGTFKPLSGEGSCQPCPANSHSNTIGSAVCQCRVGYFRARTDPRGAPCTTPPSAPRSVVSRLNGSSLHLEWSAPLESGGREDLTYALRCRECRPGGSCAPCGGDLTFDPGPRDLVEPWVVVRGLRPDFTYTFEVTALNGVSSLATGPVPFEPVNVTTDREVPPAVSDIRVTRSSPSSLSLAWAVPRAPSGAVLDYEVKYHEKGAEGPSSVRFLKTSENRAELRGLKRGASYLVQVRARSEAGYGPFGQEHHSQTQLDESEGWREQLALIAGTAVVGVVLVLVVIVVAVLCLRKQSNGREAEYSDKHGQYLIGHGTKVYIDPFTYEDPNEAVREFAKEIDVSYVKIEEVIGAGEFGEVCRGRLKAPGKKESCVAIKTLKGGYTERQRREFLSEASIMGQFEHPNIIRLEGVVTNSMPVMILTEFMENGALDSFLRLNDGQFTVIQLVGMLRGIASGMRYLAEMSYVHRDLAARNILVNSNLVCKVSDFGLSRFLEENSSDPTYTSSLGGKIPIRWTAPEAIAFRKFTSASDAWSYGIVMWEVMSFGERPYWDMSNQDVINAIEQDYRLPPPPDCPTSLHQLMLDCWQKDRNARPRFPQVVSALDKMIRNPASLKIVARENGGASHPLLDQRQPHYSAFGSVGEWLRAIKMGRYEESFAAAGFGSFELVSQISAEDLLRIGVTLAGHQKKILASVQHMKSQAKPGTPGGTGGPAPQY

T2: human EPHA3 without signal sequence, FLAG-tagged, expressed from pFLAG-EPHA3 (human, UniProt P29320 21-983)
T2 construct: not shown: FLAG tag supplied by the vector pFLAG-GW
T2 sequence: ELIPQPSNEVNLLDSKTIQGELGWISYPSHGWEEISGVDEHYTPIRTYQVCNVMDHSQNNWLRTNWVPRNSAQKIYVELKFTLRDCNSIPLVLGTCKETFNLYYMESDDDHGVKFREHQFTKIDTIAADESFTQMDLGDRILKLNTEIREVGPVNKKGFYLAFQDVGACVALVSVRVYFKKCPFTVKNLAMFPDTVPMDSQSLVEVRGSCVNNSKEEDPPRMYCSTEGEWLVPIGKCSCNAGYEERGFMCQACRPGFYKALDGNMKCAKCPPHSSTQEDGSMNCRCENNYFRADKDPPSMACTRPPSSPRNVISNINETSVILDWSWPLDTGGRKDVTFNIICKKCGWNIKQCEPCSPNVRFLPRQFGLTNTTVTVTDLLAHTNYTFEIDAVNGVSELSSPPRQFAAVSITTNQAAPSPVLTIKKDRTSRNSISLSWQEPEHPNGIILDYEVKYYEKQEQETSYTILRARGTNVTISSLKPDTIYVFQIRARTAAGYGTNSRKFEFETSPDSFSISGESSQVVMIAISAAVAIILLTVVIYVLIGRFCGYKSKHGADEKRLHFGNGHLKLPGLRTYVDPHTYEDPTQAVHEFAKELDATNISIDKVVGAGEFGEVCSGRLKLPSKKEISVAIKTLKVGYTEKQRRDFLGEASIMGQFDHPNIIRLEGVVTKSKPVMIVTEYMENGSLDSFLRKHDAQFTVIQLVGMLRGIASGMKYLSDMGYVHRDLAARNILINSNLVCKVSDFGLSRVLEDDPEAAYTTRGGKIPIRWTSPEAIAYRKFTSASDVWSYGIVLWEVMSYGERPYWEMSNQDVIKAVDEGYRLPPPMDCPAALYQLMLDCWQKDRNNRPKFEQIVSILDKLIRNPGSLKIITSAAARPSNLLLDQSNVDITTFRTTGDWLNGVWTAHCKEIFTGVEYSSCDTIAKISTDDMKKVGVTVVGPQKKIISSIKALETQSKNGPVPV

B1: mouse anti-human EPHA2 antibody A205 (antibody, V domains shown)
VH: QIQLVQSGPELKKPGETVKISCKASGYTFTDYSMNWVKQAPGKGLKWMGWINTYTGEPTYADDFKGRFAFSLETSASTAYLQINNLKNEDTATYFCASPISLLRLLDYWGQGTTLTVSS
VL: DVVMTQTPLSLPVSLGDQASIPCRSSQSLVHSNGNTYLHWYLQKPGQSPKLLIYKVSNRFSGVPDRFSGSGSGTDFTLKISRVEAEDLGVYFCSQSTHVPWTFGGGTKLEIKR
notes: Mouse monoclonal antibody purified from hybridoma supernatant, isotype IgG2b; also called A205 antibody
B2: mouse anti-human EPHA2 antibody A201 (antibody, V domains shown)
VH: EVQLQQSGAELVKPGASVKLSCTVSGFTFKDTYVHWVKQRPEQGLEWIGRIDPANANTKYDPKFQGKASITADTSSNTAYLQLSSLPSEDTAVYYCAAYGKSAWFAYWGQGTLVTVSA
VL: DIQMTQTTSSLSASLGDRVTISCRASQDIGNYLNWYQQKPDGTVKVLIYYTSRLHSGVPSRFSGSGSGTDYSLTISNLEQEDIATYFCQQGHSLPPTFGGGTKLEIKR
notes: Mouse monoclonal antibody purified from hybridoma supernatant, isotype IgG1; also called A201 antibody

Experiments:
[1] = biological target: T3, human EPHA2 without signal sequence, FLAG-tagged, expressed from pFLAG-EPHA2 (human, UniProt P29317 24-976); test: immunohistochemistry on formalin-fixed, paraffin-embedded 293F cells transiently expressing EPHA2; antibody at 2.5 μg/mL
T3 construct: formalin-fixed, paraffin-embedded; not shown: FLAG tag supplied by the vector pFLAG-GW (from pFLAG-myc-CMV19)

[2] = biological target: T4, endogenous human EPHA2 (on MDA-MB-231 cells or 293F cells) (human, UniProt P29317 24-976); test: immunohistochemistry on formalin-fixed, paraffin-embedded MDA-MB-231 cells
T4 construct: Untagged protein made by the cell lines themselves; also called endogenous EPHA2; EPHA2 endogenously expressed MDA-MB-231 cells

[3] = biological target: T1, human EPHB4 without signal sequence, …; test: flow cytometry on transfected 293F cells
[4] = biological target: T2, human EPHA3 without signal sequence, …; test: flow cytometry on transfected 293F cells
[5] = biological target: T5, human EPHA5 without signal sequence, FLAG-tagged, expressed from pFLAG-EPHA5 (human, UniProt P54756 56-1037); test: flow cytometry on transfected 293F cells
T5 construct: not shown: FLAG tag supplied by the vector pFLAG-GW

[6] = biological target: T6, human PTPRF isoform 2 without signal sequence, FLAG-tagged, expressed from pFLAG-PTPRF-2 (human, UniProt P10586 30-1907); test: flow cytometry on transfected 293F cells
T6 construct: not shown: FLAG tag supplied by the vector pFLAG-GW
T6 sequence (P10586 other isoform, or with tags, fused parts or gaps): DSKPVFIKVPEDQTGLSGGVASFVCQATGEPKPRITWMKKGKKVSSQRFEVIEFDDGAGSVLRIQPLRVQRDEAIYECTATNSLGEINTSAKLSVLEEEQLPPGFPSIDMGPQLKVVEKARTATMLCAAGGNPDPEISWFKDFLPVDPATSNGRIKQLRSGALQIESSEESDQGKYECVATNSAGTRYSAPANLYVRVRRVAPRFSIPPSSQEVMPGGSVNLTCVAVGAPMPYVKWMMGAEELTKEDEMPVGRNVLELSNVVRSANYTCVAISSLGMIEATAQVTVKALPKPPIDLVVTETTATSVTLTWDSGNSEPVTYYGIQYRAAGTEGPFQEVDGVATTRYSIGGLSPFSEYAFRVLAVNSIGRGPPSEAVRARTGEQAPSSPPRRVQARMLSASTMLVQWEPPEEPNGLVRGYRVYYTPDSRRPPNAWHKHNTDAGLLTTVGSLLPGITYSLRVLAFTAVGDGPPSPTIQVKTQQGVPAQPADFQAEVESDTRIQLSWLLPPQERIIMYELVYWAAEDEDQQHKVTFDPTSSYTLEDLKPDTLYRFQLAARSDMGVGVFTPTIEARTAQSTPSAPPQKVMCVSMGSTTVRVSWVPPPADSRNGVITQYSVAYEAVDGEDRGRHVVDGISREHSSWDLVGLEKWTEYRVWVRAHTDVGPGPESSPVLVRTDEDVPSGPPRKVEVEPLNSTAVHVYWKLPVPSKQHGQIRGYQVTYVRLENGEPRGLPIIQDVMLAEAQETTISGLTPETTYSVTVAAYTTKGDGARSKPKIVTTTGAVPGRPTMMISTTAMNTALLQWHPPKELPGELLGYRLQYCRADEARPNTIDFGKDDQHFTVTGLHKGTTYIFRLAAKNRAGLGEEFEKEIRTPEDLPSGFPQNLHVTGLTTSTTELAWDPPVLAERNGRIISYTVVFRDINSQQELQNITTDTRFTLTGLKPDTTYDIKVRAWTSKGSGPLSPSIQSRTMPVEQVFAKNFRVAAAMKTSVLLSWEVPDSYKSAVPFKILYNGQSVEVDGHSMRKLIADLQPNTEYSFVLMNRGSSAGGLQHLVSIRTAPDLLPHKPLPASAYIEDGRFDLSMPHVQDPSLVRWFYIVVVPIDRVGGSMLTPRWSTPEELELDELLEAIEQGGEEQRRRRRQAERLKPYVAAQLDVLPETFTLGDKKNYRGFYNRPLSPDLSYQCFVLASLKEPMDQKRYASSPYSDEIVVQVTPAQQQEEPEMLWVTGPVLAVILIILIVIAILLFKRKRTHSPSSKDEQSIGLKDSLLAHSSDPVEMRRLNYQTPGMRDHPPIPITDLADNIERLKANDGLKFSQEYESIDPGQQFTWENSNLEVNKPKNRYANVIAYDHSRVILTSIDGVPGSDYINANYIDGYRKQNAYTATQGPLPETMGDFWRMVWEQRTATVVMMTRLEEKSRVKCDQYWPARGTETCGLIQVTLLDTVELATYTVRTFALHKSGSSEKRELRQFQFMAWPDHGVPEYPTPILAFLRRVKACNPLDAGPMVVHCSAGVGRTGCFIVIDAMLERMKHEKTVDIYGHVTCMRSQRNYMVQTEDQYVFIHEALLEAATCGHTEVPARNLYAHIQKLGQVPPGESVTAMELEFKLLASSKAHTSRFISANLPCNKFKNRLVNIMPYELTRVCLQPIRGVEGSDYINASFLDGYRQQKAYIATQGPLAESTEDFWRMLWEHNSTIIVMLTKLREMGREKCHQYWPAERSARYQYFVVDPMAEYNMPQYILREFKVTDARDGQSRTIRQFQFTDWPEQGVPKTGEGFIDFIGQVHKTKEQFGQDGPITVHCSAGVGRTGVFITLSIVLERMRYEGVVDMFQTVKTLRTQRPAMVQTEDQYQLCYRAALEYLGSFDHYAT

T5 sequence (P54756 56-1037): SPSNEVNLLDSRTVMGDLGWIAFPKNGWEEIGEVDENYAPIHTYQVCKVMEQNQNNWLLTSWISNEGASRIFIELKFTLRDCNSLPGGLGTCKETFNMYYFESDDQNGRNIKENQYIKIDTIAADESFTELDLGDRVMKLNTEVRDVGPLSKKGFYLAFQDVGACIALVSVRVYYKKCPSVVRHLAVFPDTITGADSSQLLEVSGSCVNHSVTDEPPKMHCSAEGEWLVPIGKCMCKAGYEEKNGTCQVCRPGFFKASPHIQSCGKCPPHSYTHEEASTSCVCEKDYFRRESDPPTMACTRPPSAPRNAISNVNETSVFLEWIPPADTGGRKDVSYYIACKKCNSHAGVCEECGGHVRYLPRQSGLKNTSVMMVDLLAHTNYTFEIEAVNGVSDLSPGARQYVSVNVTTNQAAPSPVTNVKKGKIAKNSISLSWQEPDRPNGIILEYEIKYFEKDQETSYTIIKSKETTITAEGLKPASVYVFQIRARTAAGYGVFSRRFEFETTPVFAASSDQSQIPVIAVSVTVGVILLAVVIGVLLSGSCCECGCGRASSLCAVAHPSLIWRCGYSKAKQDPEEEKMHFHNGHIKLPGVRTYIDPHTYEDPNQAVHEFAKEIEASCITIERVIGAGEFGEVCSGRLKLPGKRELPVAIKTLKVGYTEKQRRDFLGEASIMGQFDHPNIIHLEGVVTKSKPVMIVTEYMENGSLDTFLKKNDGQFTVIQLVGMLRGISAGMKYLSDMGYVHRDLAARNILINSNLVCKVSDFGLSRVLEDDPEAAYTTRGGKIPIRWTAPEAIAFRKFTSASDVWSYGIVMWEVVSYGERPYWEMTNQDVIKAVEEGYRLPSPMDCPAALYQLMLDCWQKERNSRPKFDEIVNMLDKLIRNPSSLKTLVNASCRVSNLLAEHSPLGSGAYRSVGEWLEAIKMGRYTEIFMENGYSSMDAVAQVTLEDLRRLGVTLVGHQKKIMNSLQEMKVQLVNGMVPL
T3 sequence (P29317 24-976): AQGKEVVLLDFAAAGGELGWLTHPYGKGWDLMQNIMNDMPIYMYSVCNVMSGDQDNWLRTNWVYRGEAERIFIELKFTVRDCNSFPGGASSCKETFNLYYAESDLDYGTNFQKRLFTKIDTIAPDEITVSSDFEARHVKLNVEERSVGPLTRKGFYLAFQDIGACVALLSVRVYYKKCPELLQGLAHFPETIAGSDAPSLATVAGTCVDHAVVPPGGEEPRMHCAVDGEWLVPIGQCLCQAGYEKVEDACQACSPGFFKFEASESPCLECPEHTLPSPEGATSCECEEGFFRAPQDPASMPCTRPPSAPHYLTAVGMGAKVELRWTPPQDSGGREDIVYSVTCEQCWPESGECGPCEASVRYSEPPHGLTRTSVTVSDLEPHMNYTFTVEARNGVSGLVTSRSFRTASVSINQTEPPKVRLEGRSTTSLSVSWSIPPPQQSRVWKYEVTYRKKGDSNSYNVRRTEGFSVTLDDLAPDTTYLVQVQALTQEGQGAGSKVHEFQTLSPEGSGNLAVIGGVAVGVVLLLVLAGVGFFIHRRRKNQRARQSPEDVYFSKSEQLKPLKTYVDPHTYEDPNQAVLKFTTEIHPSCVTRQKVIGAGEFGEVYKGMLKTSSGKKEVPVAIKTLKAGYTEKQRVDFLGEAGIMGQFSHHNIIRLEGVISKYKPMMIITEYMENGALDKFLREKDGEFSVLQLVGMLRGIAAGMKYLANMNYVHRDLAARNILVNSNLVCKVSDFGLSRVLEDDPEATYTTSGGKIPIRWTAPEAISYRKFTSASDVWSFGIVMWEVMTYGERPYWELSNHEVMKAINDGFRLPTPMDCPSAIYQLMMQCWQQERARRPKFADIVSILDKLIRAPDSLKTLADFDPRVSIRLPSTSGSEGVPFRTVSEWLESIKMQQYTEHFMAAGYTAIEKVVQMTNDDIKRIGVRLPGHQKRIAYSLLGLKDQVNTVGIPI
T4 sequence (P29317 24-976): as above

Binder | binding result [1] | binding result [2] | binding result [3] | binding result [4] | binding result [5] | binding result [6]
B1 | binds | binds | no binding | no binding | no binding | no binding
B2 | binds | binds | no binding | no binding | no binding | no binding
